Test results published in US20110059095A1 (Regeneron, published 2011).

Assays:
[1] = target: T1, Peptide D (N-terminal domain of human PAR-2-mouse IgG2a) (Human); assay: peptide ELISA
T1 chain: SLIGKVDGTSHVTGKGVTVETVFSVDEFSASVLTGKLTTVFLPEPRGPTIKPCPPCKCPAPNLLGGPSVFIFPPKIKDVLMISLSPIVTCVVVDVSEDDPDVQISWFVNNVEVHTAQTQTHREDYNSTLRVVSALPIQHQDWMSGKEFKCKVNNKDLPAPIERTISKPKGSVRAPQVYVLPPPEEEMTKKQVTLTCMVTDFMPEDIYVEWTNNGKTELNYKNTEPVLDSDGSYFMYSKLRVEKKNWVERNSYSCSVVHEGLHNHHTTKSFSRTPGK

[2] = target: T2, C-terminal biotinylated human PAR-2 14-mer peptide SEQ ID NO:885 (Val-42 to Ala) (human, not fully specified; C-terminal biotin (K-B)); assay: BLI Exp2
T2 peptide: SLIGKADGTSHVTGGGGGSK
Experimental: (§1) In order to more particularly identify the amino acids of PAR-2 with which the PAR-2 antibodies interact, an alanine scanning study was carried out using peptides comprising the activating PAR-2 protease cleavage site.
(§2) The ability of each peptide mutant to bind to PAR-2 antibodies was measured using biolayer interferometry (Octet Red; ForteBio). Each peptide (2.5 μg/ml) was captured on streptavidin coated biosensor tips (Octet SA sensor) for 10 seconds. To measure binding and dissociation between each peptide and PAR-2 antibody, the peptide-coated biosensors were contacted with 200 nM solutions of PAR-2 antibodies for 5 minutes (binding) followed by transfer to buffer with no antibody for 10 min (dissociation). […] The results are expressed as percent binding and percent T_{1/2} relative to WT peptide (Tables 24-28).

[3] = target: T3, C-terminal biotinylated human PAR-2 14-mer peptide SEQ ID NO:886 (Asp-43 to Ala) (human, not fully specified; C-terminal biotin (K-B)); assay: BLI Exp2
T3 peptide: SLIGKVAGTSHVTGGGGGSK
Experimental: as §1, §2

[4] = target: T4, C-terminal biotinylated human PAR-2 peptide SEQ ID NO:879 (Val-42 to Ala) (human, not fully specified; C-terminal biotin (K-B)); assay: BLI Exp2
T4 construct: alanine-scan mutant
T4 peptide: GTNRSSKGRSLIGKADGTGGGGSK
Experimental: as §1, §2

[5] = target: T5, C-terminal biotinylated human PAR-2 peptide SEQ ID NO:871 (wild-type) (human, not fully specified; C-terminal biotin (K-B)); assay: BLI Exp2
T5 construct: also called WT peptide
T5 peptide: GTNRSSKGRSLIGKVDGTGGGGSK
Experimental: as §1, §2

[6] = target: T6, C-terminal biotinylated human PAR-2 peptide SEQ ID NO:874 (Ser-37 to Ala) (human, not fully specified; C-terminal biotin (K-B)); assay: BLI Exp2
T6 construct: alanine-scan mutant
T6 peptide: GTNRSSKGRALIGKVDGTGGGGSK
Experimental: as §1, §2

[7] = target: T7, C-terminal biotinylated human PAR-2 peptide SEQ ID NO:882 (Thr-45 to Ala) (human, not fully specified; C-terminal biotin (K-B)); assay: BLI Exp2
T7 construct: alanine-scan mutant
T7 peptide: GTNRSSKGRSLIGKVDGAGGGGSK
Experimental: as §1, §2

[8] = target: T8, C-terminal biotinylated human PAR-2 peptide SEQ ID NO:877 (Gly-40 to Ala) (human, not fully specified; C-terminal biotin (K-B)); assay: BLI Exp2
T8 construct: alanine-scan mutant
T8 peptide: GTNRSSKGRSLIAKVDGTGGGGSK
Experimental: as §1, §2

[9] = target: T9, C-terminal biotinylated human PAR-2 14-mer peptide SEQ ID NO:887 (Val-42 and Asp-43 to Ala) (human, not fully specified; C-terminal biotin (K-B)); assay: BLI Exp2
T9 peptide: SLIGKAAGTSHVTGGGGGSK
Experimental: as §1, §2

[10] = target: T10, C-terminal biotinylated human PAR-2 peptide SEQ ID NO:876 (Ile-39 to Ala) (human, not fully specified; C-terminal biotin (K-B)); assay: BLI Exp2
T10 construct: alanine-scan mutant
T10 peptide: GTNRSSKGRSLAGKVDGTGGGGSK
Experimental: as §1, §2

[11] = target: T11, C-terminal biotinylated human PAR-2 14-mer peptide SEQ ID NO:884 (SLIGKVDGTSHVTG, wild-type) (human, not fully specified; C-terminal biotin (K-B)); assay: BLI Exp2
T11 peptide: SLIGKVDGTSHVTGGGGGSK
Experimental: as §1, §2

[12] = target: T12, C-terminal biotinylated human PAR-2 peptide SEQ ID NO:878 (Lys-41 to Ala) (human, not fully specified; C-terminal biotin (K-B)); assay: BLI Exp2
T12 construct: alanine-scan mutant
T12 peptide: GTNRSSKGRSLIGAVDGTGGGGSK
Experimental: as §1, §2

[13] = target: T13, C-terminal biotinylated human PAR-2 peptide SEQ ID NO:880 (Asp-43 to Ala) (human, not fully specified; C-terminal biotin (K-B)); assay: BLI Exp2
T13 construct: alanine-scan mutant
T13 peptide: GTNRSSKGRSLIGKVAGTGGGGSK
Experimental: as §1, §2

[14] = target: T14, C-terminal biotinylated human PAR-2 peptide SEQ ID NO:872 (Gly-35 to Ala) (human, not fully specified; C-terminal biotin (K-B)); assay: BLI Exp2
T14 construct: alanine-scan mutant
T14 peptide: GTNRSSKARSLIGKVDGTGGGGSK
Experimental: as §1, §2

[15] = target: T15, C-terminal biotinylated human PAR-2 peptide SEQ ID NO:873 (Arg-36 to Ala) (human, not fully specified; C-terminal biotin (K-B)); assay: BLI Exp2
T15 construct: alanine-scan mutant
T15 peptide: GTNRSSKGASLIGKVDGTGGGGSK
Experimental: as §1, §2

[16] = target: T16, C-terminal biotinylated human PAR-2 peptide SEQ ID NO:875 (Leu-38 to Ala) (human, not fully specified; C-terminal biotin (K-B)); assay: BLI Exp2
T16 construct: alanine-scan mutant
T16 peptide: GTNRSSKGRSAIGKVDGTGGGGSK
Experimental: as §1, §2

[17] = target: T17, C-terminal biotinylated human PAR-2 peptide SEQ ID NO:881 (Gly-44 to Ala) (human, not fully specified; C-terminal biotin (K-B)); assay: BLI Exp2
T17 construct: alanine-scan mutant
T17 peptide: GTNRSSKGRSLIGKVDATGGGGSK
Experimental: as §1, §2

full length human PAR-2 = full length human PAR-2 (human, UniProt P55085 26-397); assay: cell-based or functional assay
Chain of full length human PAR-2 (P55085 26-397 G138A limits assumed): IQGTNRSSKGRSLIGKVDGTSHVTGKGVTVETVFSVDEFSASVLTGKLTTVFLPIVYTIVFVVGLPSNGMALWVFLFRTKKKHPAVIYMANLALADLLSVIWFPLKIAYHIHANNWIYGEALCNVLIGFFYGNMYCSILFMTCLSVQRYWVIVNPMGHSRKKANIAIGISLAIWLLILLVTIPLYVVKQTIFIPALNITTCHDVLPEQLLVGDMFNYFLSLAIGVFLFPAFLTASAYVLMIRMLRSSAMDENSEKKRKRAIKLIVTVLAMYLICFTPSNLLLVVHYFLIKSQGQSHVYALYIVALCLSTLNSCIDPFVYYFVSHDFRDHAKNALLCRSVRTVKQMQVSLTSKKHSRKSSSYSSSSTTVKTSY

B1: H4H588N (antibody, human IgG4, V domains shown)
VH: EVQLLESGGGLVQPGGSLRLSCAASGFTFSSYAMTWVRQAPGKGLYWVSAISGGRGSAYYADSVKGRFTISRDNSKNTLYLQMNSLRAEDTAVYYCAKEGDSGYDLAYWGRGTLVTVSS
VL: DIQMTQSPSSLSASVGDRVTITCRARQGISNNLAWLQQKPGKAPKSLIYAASSLQSGIPSKFSGSGSGTYFTLTISSLQPEDFATYYCQQYKSSPLTFGGGTKVEIK
notes: also called H2M588N variable regions
- binding result [1]: binds
- % Rel Binding [2]: 83%
- % Rel T1/2 [2]: 0%
- binding result [3]: no binding (tested: 200 nM antibody)
- % Rel Binding [4]: 52%
- % Rel T1/2 [4]: 0%
- % Rel Binding [5]: 100%
- % Rel T1/2 [5]: 100%
- % Rel Binding [6]: 93%
- % Rel T1/2 [6]: 70%
- % Rel Binding [7]: 121%
- % Rel T1/2 [7]: 33%
- % Rel Binding [8]: 30%
- % Rel T1/2 [8]: 0%
- binding result [9]: no binding (tested: 200 nM antibody)
- % Rel Binding [10]: 85%
- % Rel T1/2 [10]: 8%
- % Rel Binding [11]: 100%
- % Rel T1/2 [11]: 100%
- % Rel Binding [12]: 121%
- % Rel T1/2 [12]: 60%
- % Rel Binding [13]: 8%
- % Rel T1/2 [13]: 5%
- % Rel Binding [14]: 99%
- % Rel T1/2 [14]: 253%
- % Rel Binding [15]: 115%
- % Rel T1/2 [15]: 180%
- % Rel Binding [16]: 105%
- % Rel T1/2 [16]: 42%
- % Rel Binding [17]: 67%
- % Rel T1/2 [17]: 1%
- IC50, calcium mobilization FLIPR, 100 nM Trypsin (full length human PAR-2): 29.5 nM

B2: H4H581P (antibody, human IgG4, V domains shown)
VH: QVQLVESGGGVVQPGRSLRLSCVASGFTFSRYGIHWVRQAPGKGLEWVIVISYDGINKYYADSVKGRFTISRDNSKNTVYLQMNSLRAEDTAVYYCAKGDFWSGYFDYWGQGTLVTVSS
VL: DIVMTQTPLSSPVTLGQPASISCRSSQSLVHSDGNTYLSWLHQRPGQPPRLLIYKISNRFSGVPDRFSGSGAGTDFTLQISRVEAEDVGIYYCMQATQFPTFGGGTKVEIK
notes: also called mAb H4H581P; H1H581P variable regions
- binding result [1]: binds
- % Rel Binding [2]: 19%
- % Rel T1/2 [2]: 0%
- binding result [3]: no binding (tested: 200 nM antibody)
- % Rel Binding [4]: 46%
- % Rel T1/2 [4]: 1%
- % Rel Binding [5]: 100%
- % Rel T1/2 [5]: 100%
- % Rel Binding [6]: 56%
- % Rel T1/2 [6]: 3%
- % Rel Binding [7]: 91%
- % Rel T1/2 [7]: 94%
- % Rel Binding [8]: 92%
- % Rel T1/2 [8]: 15%
- binding result [9]: no binding (tested: 200 nM antibody)
- % Rel Binding [10]: 14%
- % Rel T1/2 [10]: 0%
- % Rel Binding [11]: 100%
- % Rel T1/2 [11]: 100%
- % Rel Binding [12]: 109%
- % Rel T1/2 [12]: 49%
- % Rel Binding [13]: 5%
- % Rel T1/2 [13]: 4%
- % Rel Binding [14]: 97%
- % Rel T1/2 [14]: 117%
- % Rel Binding [15]: 105%
- % Rel T1/2 [15]: 90%
- % Rel Binding [16]: 19%
- % Rel T1/2 [16]: 0%
- % Rel Binding [17]: 102%
- % Rel T1/2 [17]: 124%
- IC50, calcium mobilization FLIPR, 100 nM Trypsin (full length human PAR-2): 55 nM
